Columns and labels:
dog RXFP1 receptor = dog RXFP1 receptor (dog); assay: cell-based or functional assay
human RXFP1 receptor = target: T1, human RXFP1 receptor (human, UniProt Q9HBX9 1-757); assay: cell-based or functional assay
T1 sequence (looked up): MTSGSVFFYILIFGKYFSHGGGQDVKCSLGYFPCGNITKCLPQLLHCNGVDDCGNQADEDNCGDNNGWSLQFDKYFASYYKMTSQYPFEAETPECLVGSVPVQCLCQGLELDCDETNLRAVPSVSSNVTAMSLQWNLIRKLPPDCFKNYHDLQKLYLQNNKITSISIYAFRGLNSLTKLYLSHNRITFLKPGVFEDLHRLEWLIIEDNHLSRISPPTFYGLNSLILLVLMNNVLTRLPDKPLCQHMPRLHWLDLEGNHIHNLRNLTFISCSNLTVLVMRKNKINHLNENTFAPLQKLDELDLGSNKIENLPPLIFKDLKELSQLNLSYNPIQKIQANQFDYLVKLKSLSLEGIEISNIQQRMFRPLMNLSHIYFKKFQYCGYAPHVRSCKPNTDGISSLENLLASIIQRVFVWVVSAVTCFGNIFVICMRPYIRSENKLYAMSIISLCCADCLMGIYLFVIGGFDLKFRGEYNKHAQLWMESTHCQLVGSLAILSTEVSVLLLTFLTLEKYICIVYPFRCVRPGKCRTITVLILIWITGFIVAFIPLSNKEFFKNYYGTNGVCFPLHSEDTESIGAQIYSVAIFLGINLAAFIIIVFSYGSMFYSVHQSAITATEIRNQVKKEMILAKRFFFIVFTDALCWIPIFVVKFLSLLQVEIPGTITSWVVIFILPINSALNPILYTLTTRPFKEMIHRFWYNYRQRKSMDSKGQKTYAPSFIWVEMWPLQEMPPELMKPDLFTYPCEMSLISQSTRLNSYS

[1] = target: T2, cynomolgus monkey RXFP1 receptor (cynomolgus monkey, UniProt H9ERA2 1-757 (rhesus entry)); assay: cell-based or functional assay
T2 sequence: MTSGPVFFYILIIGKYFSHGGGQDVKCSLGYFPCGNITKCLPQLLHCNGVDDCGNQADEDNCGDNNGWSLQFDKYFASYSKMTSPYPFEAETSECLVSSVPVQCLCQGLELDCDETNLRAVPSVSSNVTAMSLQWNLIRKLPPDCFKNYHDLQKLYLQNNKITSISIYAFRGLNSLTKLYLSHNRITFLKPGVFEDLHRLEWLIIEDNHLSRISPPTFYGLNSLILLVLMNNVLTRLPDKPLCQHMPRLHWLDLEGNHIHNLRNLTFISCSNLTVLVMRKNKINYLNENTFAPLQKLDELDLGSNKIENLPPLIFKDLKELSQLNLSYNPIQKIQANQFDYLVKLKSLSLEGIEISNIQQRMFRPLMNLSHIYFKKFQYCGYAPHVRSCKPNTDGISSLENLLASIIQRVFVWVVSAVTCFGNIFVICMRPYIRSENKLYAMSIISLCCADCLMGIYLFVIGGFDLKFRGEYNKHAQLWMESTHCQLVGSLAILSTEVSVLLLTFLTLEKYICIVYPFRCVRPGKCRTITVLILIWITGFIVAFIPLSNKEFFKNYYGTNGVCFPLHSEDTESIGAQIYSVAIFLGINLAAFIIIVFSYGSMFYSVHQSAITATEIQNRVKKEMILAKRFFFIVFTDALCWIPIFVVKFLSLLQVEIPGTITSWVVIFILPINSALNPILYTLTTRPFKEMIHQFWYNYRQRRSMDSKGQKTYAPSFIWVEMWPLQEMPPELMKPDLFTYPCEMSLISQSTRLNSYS

human RXFP2 receptor = human RXFP2 receptor (human, UniProt Q8WXD0 1-754); assay: cell-based or functional assay
[2] = target: mouse serum albumin (mSA) (mouse); assay: SPR Biacore T200, albumin amine-coupled, fusion protein as analyte
Procedure: (§1) Coupling of serum albumins from different species to an S series CM5 sensor chip (GE, Cat. 29-1049-88) was performed using an amino coupling kit (GE, Cat No. BR-1000-50). The albumin from each species was diluted to 2 μg/mL. After the CM5 chip was activated with EDC/NHS, the diluted albumin was flowed over the chip to reach a surface response value of about 200 (180 to 230) RU, and then the chip was blocked with ethanolamine. The blank control channel also needed to be activated with EDC/NHS and blocked with ethanolamine. […] The samples of 0051 and 0054 at different concentrations were separately flowed through the albumin-coupled and blank channels for 3 min at a flow rate of 50 μL/min, with a dissociation time of 4 min. After the end of each cycle, the chip was regenerated using 10 mM glycine-hydrochloric acid (pH 1.5) (GE, Cat. #BR-1003-54). The reaction signals were detected in real-time using Biacore T200 (GE) to obtain the association and dissociation curves, and the data obtained were fitted with a Langmuir 1:1 binding model using the BIAevaluation version 4.1 software at appropriate concentration points to obtain the affinity values.

rat serum albumin = target: T3, rat serum albumin (rat); assay: as above
T3 chain: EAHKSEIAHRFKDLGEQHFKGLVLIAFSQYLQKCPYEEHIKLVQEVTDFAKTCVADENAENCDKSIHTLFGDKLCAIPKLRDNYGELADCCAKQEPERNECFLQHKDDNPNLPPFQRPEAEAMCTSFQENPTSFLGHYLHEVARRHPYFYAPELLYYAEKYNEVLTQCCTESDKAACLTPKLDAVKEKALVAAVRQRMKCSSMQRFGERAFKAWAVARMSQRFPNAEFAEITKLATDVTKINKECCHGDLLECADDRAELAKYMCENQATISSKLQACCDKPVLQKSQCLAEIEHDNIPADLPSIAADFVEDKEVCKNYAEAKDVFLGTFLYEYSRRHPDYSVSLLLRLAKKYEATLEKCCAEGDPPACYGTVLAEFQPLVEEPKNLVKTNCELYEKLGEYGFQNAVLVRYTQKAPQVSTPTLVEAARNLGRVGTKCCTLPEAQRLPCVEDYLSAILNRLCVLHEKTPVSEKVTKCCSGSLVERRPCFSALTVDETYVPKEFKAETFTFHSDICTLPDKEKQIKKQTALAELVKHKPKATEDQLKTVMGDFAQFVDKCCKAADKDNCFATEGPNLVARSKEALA
Procedure: as §1

[3] = target: human serum albumin (HSA) (human); assay: as above
Procedure: as §1

B1: 0051 (other)
chain: EVQLLESGGGLVQPGGSLRLSCAASGFTFLTSCMGWFRQAPGKEREGVSSIYTVGGSTFYTNSVKGRFTISRDNSKNTLYLQMNSLRAEDTAVYYCAAGSPARCRLRDPTTFDYWGQGTLVTVSSGGGGQGGGGQGGGGQGGGGQGGGGQSWMEEVIKLCGRELVRAQIAICGMSTWSGGGSGGSGGGQLYSALANKCCHVGCTKRSLARFC
notes: Single-chain fusion: anti-HSA VHH, linker, relaxin-2 B chain, linker, relaxin-2 A chain; also called fusion protein 0051; molecule 0051
EC50 (nM), cAMP production in CHO-K1 cells with receptor overexpression (dog RXFP1 receptor): 2210 nM | EC50 (nM), cAMP production in CHO-K1 cells with receptor overexpression (human RXFP1 receptor): 28.3 nM | EC50 (nM), cAMP production in CHO-K1 cells with receptor overexpression [1]: 25.1 nM | EC50 (nM), cAMP production in CHO-K1 cells with receptor overexpression (human RXFP2 receptor): 1250 nM | Kd [2]: 37.9 nM | koff [2]: 0.0471 s⁻¹ | kon [2]: 1.24e+06 M⁻¹ s⁻¹ | Kd (rat serum albumin): 1.95 nM | koff (rat serum albumin): 0.00439 s⁻¹ | kon (rat serum albumin): 2.25e+06 M⁻¹ s⁻¹ | Kd [3]: 0.0422 nM | koff [3]: 0.000207 s⁻¹ | kon [3]: 4.91e+06 M⁻¹ s⁻¹
